Sequences and labels used below:
B1: CPEB3 Ribozyme (parent)
chain: GGGGGCCACAGCAGAAGCGUUCACGUCGCGGCCCCUGUCAGAUUCUGGUGAAUCUGCGAAUUCUGCUGU

The variants in this data set derive from B1. The data set is described as follows: self-cleavage, relative activity (ratio to wild type); higher = more cleavage; co-transcriptional.
GGGGGCCACAGCAGAAGCGUUCACGUCGCGGCCCCUGUCAGAGUCUCGUGAAUCUGCGAAUUCUGCUGU: the self-cleavage was 0.936. Take GGGGGCCACAGCAGAAGCGUUCACGUCGCGGCCCCUGUCAGAGUCUGAUGAAUCUGCGAAUUCUGCUGU: the self-cleavage is 0.964. The same measure for GGGGGCCACAGCAGAAGCGUUCACGUCGCGGCCCCUGUCAGAGUCUGCUGAAUCUGCGAAUUCUGCUGU: 0.933; for GGGGGCCACAGCAGAAGCGUUCACGUCGCGGCCCCUGUCAGAGUCUGGUGAAUGUGCGAAUUCUGCUGU: 0.318; for GGGGGCCACAGCAGAAGCGUUCACGUCGCGGCCCCUGUCAGAGUCUGGUGAAUAUGCGAAUUCUGCUGU: 0.432. Turning to GGGGGCCACAGCAGAAGCGUUCACGUCGCGGCCCCUGUCAGACUCUGCUGAAUCUGCGAAUUCUGCUGU, the self-cleavage amounted to 1. The same measure for GGGGGCCACAGCAGAAGCGUUCACGUCGCGGCCCCUGUCAGACUCUGUUGAAUCUGCGAAUUCUGCUGU: 0.998. The same measure for GGGGGCCACAGCAGAAGCGUUCACGUCGCGGCCCCUGUCAGACUCUGGUGAAUCUGGGAAUUCUGCUGU: 0.308; for GGGGGCCACAGCAGAAGCGUUCACGUCGCGGCCCCUGUCAGACUCUGGUGAAUCUGAGAAUUCUGCUGU: 0.298.

For the variant GGGGGCCACAGCAGAAGCGUUCACGUCGCGGCCCCUGUCAGAGUCUGGUAAAUCUGCGAAUUCUGCUGU, the self-cleavage is 0.938. As for GGGGGCCACAGCAGAAGCGUUCACGUCGCGGCCCCUGUCAGACUCUGGUGAAUCUGCGAAUUCUGCUGA, the self-cleavage turned out to be 1.01. The same measure for GGGGGCCACAGCAGAAGCGUUCACGUCGCGGCCCCUGUCAGACUCUAGUGAAUCUGCGAAUUCUGCUGU: 1.02; for GGGGGCCACAGCAGAAGCGUUCACGUCGCGGCCCCUGUCAGACUCUCGUGAAUCUGCGAAUUCUGCUGU: 1.01.

In the case of GGGGGCCACAGCAGAAGCGUUCACGUCGCGGCCCCUGUCAGAGUCUGGUGAAUCUGCGAAUUCUGCUGU, the self-cleavage stood at 0.929. GGGGGCCACAGCAGAAGCGUUCACGUCGCGGCCCCUGUCAGACUCUGGUGAAUCUGCGAAUUCUGCUGU: the self-cleavage stood at 0.981. The same measure for GGGGGCCACAGCAGAAGCGUUCACGUCGCGGCCCCUGUCAGAGUAUGGUGAAUCUGCGAAUUCUGCUGU: 0.886; for GGGGGCCACAGCAGAAGCGUUCACGUCGCGGCCCCUGUCAGAGUGUGGUGAAUCUGCGAAUUCUGCUGU: 0.907.

As to GGGGGCCACAGCAGAAGCGUUCACGUCGCGGCCCCUGUCAGACUCGGGUGAAUCUGCGAAUUCUGCUGU, the self-cleavage came to 0.97. As to GGGGGCCACAGCAGAAGCGUUCACGUCGCGGCCCCUGUCAGACUCCGGUGAAUCUGCGAAUUCUGCUGU, the self-cleavage was found to be 0.939. The value for GGGGGCCACAGCAGAAGCGUUCACGUCGCGGCCCCUGUCAGACUCAGGUGAAUCUGCGAAUUCUGCUGU was 0.985. Turning to GGGGGCCACAGCAGAAGCGUUCACGUCGCGGCCCCUGUCAGACUCUGGUGAAUCUGCGCAUUCUGCUGU, the self-cleavage came out at 0.652. Take GGGGGCCACAGCAGAAGCGUUCACGUCGCGGCCCCUGUCAGACUCUGGUGAAUCUGCGGAUUCUGCUGU: the self-cleavage was found to be 1.02. The same measure for GGGGGCCACAGCAGAAGCGUUCACGUCGCGGCCCCUGUCAGACUCUGGUGAAUCUGCGUAUUCUGCUGU: 0.68; for GGGGGCCACAGCAGAAGCGUUCACGUCGCGGCCCCUGUCAGACUCUGGUGAAUCUGCGAAUUCGGCUGU: 0.825; for GGGGGCCACAGCAGAAGCGUUCACGUCGCGGCCCCUGUCAGACUCUGGUGAAUCUGCGAAUUCCGCUGU: 0.671. Consider GGGGGCCACAGCAGAAGCGUUCACGUCGCGGCCCCUGUCAGACUCUGGUGAAUCUGCGAAUUCAGCUGU, for which the self-cleavage turned out to be 0.713. The value for GGGGGCCACAGCAGAAGCGUUCACGUCGCGGCCCCUGUCAGACUCUGGUGAAUCUGCAAAUUCUGCUGU was 0.943; that for GGGGGCCACAGCAGAAGCGUUCACGUCGCGGCCCCUGUCAGACUCUGGUGAAUCUGCUAAUUCUGCUGU was 0.975. As for GGGGGCCACAGCAGAAGCGUUCACGUCGCGGCCCCUGUCAGAGUCUGGUGAAUCUGCGAAUUGUGCUGU, the self-cleavage came to 0.446. The value for GGGGGCCACAGCAGAAGCGUUCACGUCGCGGCCCCUGUCAGACUCUGGUGACUCUGCGAAUUCUGCUGU was 0.968; that for GGGGGCCACAGCAGAAGCGUUCACGUCGCGGCCCCUGUCAGACUCUGGUGAUUCUGCGAAUUCUGCUGU was 1; that for GGGGGCCACAGCAGAAGCGUUCACGUCGCGGCCCCUGUCAGAGUCUGGUGAAUCUGCGCAUUCUGCUGU was 0.513. As to GGGGGCCACAGCAGAAGCGUUCACGUCGCGGCCCCUGUCAGAGUCUGGUGAAUCUGCGGAUUCUGCUGU, the self-cleavage is 0.836.

As for GGGGGCCACAGCAGAAGCGUUCACGUCGCGGCCCCUGUCAGAGUCUGGUGAAUCUGCGUAUUCUGCUGU, the self-cleavage was 0.566. The same measure for GGGGGCCACAGCAGAAGCGUUCACGUCGCGGCCCCUGUCAGACUUUGGUGAAUCUGCGAAUUCUGCUGU: 1.01; for GGGGGCCACAGCAGAAGCGUUCACGUCGCGGCCCCUGUCAGAGUCUGGUGAAUCUGCGAAUUCUGUUGU: 0.794. Turning to GGGGGCCACAGCAGAAGCGUUCACGUCGCGGCCCCUGUCAGAGUCUGGUGAAUCUGCGAAUUCUGAUGU, the self-cleavage is 0.319. For GGGGGCCACAGCAGAAGCGUUCACGUCGCGGCCCCUGUCAGACUCUGGUGAAUCUACGAAUUCUGCUGU, the self-cleavage was determined as 0.861. For GGGGGCCACAGCAGAAGCGUUCACGUCGCGGCCCCUGUCAGACUCUGGUGAAUCUCCGAAUUCUGCUGU, the self-cleavage amounted to 0.494.

In the case of GGGGGCCACAGCAGAAGCGUUCACGUCGCGGCCCCUGUCAGAGUCUGGUGCAUCUGCGAAUUCUGCUGU, the self-cleavage is 0.941. As to GGGGGCCACAGCAGAAGCGUUCACGUCGCGGCCCCUGUCAGAGUCUGGUGUAUCUGCGAAUUCUGCUGU, the self-cleavage amounted to 0.934. The value for GGGGGCCACAGCAGAAGCGUUCACGUCGCGGCCCCUGUCAGAGUCUGGUGGAUCUGCGAAUUCUGCUGU was 0.901; that for GGGGGCCACAGCAGAAGCGUUCACGUCGCGGCCCCUGUCAGAAUCUGGUGAAUCUGCGAAUUCCGCUGU was 0.649; that for GGGGGCCACAGCAGAAGCGUUCACGUCGCGGCCCCUGUCAGACACUGGUGAAUCUGCGAAUUCUGCUGU was 1.02. The value for GGGGGCCACAGCAGAAGCGUUCACGUCGCGGCCCCUGUCAGACCCUGGUGAAUCUGCGAAUUCUGCUGU was 0.937. The same measure for GGGGGCCACAGCAGAAGCGUUCACGUCGCGGCCCCUGUCAGACUCUGGUGCAUCUGCGAAUUCUGCUGU: 0.968; for GGGGGCCACAGCAGAAGCGUUCACGUCGCGGCCCCUGUCAGACUCUGGUGAAUCUGCGAAUACUGCUGU: 0.769; for GGGGGCCACAGCAGAAGCGUUCACGUCGCGGCCCCUGUCAGACUCUGGUGAAUCUGCGAAUCCUGCUGU: 0.86. Take GGGGGCCACAGCAGAAGCGUUCACGUCGCGGCCCCUGUCAGAGUCUGGUGAAUCUGCGAUUUCUGCUGU: the self-cleavage stood at 0.419. The same measure for GGGGGCCACAGCAGAAGCGUUCACGUCGCGGCCCCUGUCAGAGUCUGGUGAAUCUGCGAGUUCUGCUGU: 0.556; for GGGGGCCACAGCAGAAGCGUUCACGUCGCGGCCCCUGUCAGAGUCUGGUGAAUCUGCGACUUCUGCUGU: 0.498. As for GGGGGCCACAGCAGAAGCGUUCACGUCGCGGCCCCUGUCAGACUCUGGUGAAACUGCGAAUUCUGCUGU, the self-cleavage is 0.92. The value for GGGGGCCACAGCAGAAGCGUUCACGUCGCGGCCCCUGUCAGACUCUGGUGAAUCCGCGAAUUCUGCUGU was 0.455; that for GGGGGCCACAGCAGAAGCGUUCACGUCGCGGCCCCUGUCAGACUCUGGUGAAUCAGCGAAUUCUGCUGU was 0.632.

As to GGGGGCCACAGCAGAAGCGUUCACGUCGCGGCCCCUGUCAGAAUCUGGUGAAUCUGCGAAUUCUGCUGG, the self-cleavage was 1.01. On to GGGGGCCACAGCAGAAGCGUUCACGUCGCGGCCCCUGUCAGAAUCUGGUGAAUCUGCGAAUUCUGCUGA, for which the self-cleavage turned out to be 0.974. The value for GGGGGCCACAGCAGAAGCGUUCACGUCGCGGCCCCUGUCAGACUCUGGUGAAUCUGCGAAUUCUGCUUU was 1; that for GGGGGCCACAGCAGAAGCGUUCACGUCGCGGCCCCUGUCAGACUCUGGUGAAUCUGCGAAUUCUGUUGU was 0.89.

As to GGGGGCCACAGCAGAAGCGUUCACGUCGCGGCCCCUGUCAGACUCUGGUGAAUCUGCGAAUUCUGGUGU, the self-cleavage came to 0.806.

Take GGGGGCCACAGCAGAAGCGUUCACGUCGCGGCCCCUGUCAGACUCUGGUAAAUCUGCGAAUUCUGCUGU: the self-cleavage turned out to be 0.956. The value for GGGGGCCACAGCAGAAGCGUUCACGUCGCGGCCCCUGUCAGACUCUGGUGAAUCUGCGAGUUCUGCUGU was 0.798; that for GGGGGCCACAGCAGAAGCGUUCACGUCGCGGCCCCUGUCAGACUCUGGUGAAUCUGCGAUUUCUGCUGU was 0.415; that for GGGGGCCACAGCAGAAGCGUUCACGUCGCGGCCCCUGUCAGACUCUGGUGAAUCUGCGACUUCUGCUGU was 0.227. The same measure for GGGGGCCACAGCAGAAGCGUUCACGUCGCGGCCCCUGUCAGAAUCUGGUGAAUCUGCGAAUUCUGCAGU: 0.919. Take GGGGGCCACAGCAGAAGCGUUCACGUCGCGGCCCCUGUCAGAAUCUGGUGAAUCUGCGAAUUCUGCCGU: the self-cleavage was 0.895. On to GGGGGCCACAGCAGAAGCGUUCACGUCGCGGCCCCUGUCAGACUCUGGUGAAUCUGCGAAUUAUGCUGU, for which the self-cleavage was determined as 0.619. The same measure for GGGGGCCACAGCAGAAGCGUUCACGUCGCGGCCCCUGUCAGACUCUGGUGAAUCUGCGAAUUGUGCUGU: 0.648; for GGGGGCCACAGCAGAAGCGUUCACGUCGCGGCCCCUGUCAGACUCUGGCGAAUCUGCGAAUUCUGCUGU: 0.984. The value for GGGGGCCACAGCAGAAGCGUUCACGUCGCGGCCCCUGUCAGAGUCUGGUGAAUCUGAGAAUUCUGCUGU was 0.293; that for GGGGGCCACAGCAGAAGCGUUCACGUCGCGGCCCCUGUCAGAGUCUGGUGACUCUGCGAAUUCUGCUGU was 0.962; that for GGGGGCCACAGCAGAAGCGUUCACGUCGCGGCCCCUGUCAGAGUCUGGUGAUUCUGCGAAUUCUGCUGU was 0.992. On to GGGGGCCACAGCAGAAGCGUUCACGUCGCGGCCCCUGUCAGAGUCUGGUGAGUCUGCGAAUUCUGCUGU, for which the self-cleavage stood at 0.911. As for GGGGGCCACAGCAGAAGCGUUCACGUCGCGGCCCCUGUCAGACUCUGGUGAAUCUGCGAAUUCUCCUGU, the self-cleavage is 0.567. As for GGGGGCCACAGCAGAAGCGUUCACGUCGCGGCCCCUGUCAGACUCUGGUGAAUCUGCGAAUUCUGCAGU, the self-cleavage was 0.98. For GGGGGCCACAGCAGAAGCGUUCACGUCGCGGCCCCUGUCAGACUCUGGUGAAUCUGCGAAUUCUGCGGU, the self-cleavage was 1.01.

Regarding GGGGGCCACAGCAGAAGCGUUCACGUCGCGGCCCCUGUCAGACUCUGGUGAAUCUGCGAAUUCUGCCGU, the self-cleavage came to 0.969. On to GGGGGCCACAGCAGAAGCGUUCACGUCGCGGCCCCUGUCAGACUCUGGUGAAUGUGCGAAUUCUGCUGU, for which the self-cleavage turned out to be 0.585. As for GGGGGCCACAGCAGAAGCGUUCACGUCGCGGCCCCUGUCAGACUCUGGUGAAUUUGCGAAUUCUGCUGU, the self-cleavage is 0.905.

Values taken from the RNAGym collection of RNA variant scans (doi:10.7554/elife.80360).
